The results in this text go back to patent publication US6713265 (SYNAPTIC PHARMACEUTICAL, dated 2004).

Changes are numbered by the printed parent chain. Ends that are not written are not given here.

The chains are these.
T1: canine Y5 receptor (canine, UniProt O62729 1-446)
T1 construct: Transiently expressed in COS-7 cells; also called canine (beagle) Y5; BO11
T1 sequence: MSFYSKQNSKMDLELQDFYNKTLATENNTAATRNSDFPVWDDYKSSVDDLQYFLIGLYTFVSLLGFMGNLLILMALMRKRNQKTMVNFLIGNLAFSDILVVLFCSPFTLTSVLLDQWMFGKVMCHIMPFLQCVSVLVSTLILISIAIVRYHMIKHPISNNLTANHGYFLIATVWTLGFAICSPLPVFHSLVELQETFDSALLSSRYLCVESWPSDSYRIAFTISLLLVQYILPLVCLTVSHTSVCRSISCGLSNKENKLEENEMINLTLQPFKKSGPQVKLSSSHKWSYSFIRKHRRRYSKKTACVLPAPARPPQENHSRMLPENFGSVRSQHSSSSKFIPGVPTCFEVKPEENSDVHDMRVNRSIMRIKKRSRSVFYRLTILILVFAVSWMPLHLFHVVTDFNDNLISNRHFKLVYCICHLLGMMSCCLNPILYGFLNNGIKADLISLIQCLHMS

T2: human Y1 receptor (human, UniProt P25929 1-384)
T2 construct: whole, on cells; stably transfected 293 cells for function
T2 sequence (looked up): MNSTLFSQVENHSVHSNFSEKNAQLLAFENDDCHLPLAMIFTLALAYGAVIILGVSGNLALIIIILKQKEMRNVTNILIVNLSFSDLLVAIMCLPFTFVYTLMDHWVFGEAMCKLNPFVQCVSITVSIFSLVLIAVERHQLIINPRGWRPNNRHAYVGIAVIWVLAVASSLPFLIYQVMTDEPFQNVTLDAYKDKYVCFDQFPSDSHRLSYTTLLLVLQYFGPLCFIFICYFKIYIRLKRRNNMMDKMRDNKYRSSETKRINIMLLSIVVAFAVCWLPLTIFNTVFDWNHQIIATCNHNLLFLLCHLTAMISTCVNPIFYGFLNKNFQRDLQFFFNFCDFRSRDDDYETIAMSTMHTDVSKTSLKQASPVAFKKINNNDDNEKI

T3: rat hypothalamic Y5 receptor (rat, UniProt Q63634 1-445)
T3 construct: Expressed transiently in COS-7 or stably in 293 cells; also called rat Y5; CG-18
T3 sequence: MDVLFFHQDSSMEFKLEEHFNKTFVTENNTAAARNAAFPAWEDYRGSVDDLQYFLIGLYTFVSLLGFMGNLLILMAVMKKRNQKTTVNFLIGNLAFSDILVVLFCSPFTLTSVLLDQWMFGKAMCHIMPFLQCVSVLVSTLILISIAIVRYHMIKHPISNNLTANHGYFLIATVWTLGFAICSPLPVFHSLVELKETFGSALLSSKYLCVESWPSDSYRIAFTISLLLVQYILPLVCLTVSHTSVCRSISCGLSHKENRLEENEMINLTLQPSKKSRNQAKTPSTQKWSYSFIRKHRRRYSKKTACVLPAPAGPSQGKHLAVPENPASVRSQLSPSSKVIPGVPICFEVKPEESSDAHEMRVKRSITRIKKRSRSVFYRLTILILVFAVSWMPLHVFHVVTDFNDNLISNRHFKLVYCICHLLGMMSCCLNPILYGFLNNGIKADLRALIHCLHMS

T4: human Y5 receptor (human, UniProt Q15761 1-445)
T4 sequence: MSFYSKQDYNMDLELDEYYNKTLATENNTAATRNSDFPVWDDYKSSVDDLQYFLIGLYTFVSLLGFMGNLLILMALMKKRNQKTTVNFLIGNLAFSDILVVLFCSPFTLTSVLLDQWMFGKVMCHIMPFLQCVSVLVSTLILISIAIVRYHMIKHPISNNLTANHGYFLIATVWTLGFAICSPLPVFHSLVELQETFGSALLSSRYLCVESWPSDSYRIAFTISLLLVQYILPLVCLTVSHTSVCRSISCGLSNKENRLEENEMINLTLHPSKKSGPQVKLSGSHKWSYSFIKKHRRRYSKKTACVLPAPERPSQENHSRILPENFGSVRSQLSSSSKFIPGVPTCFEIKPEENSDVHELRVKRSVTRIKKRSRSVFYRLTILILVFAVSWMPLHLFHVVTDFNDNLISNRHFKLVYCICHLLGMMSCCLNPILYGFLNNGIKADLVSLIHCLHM

T5: rat Y1 receptor (rat, UniProt P21555 1-382)
T5 construct: whole, on cells; also called rY1
T5 sequence (looked up): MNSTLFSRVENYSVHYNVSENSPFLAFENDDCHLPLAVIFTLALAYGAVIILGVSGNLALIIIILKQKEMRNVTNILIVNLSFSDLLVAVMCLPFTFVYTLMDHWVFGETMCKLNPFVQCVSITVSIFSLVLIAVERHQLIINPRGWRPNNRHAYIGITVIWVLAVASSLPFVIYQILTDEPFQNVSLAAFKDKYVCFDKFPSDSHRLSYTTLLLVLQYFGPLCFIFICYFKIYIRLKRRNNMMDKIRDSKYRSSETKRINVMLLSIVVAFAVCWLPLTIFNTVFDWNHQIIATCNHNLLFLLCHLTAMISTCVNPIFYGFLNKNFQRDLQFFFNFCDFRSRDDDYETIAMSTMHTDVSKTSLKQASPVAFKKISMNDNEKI

T6: rat Y2 receptor (rat, UniProt Q9ERC0 1-381)
T6 construct: whole, on cells; also called rY2
T6 sequence: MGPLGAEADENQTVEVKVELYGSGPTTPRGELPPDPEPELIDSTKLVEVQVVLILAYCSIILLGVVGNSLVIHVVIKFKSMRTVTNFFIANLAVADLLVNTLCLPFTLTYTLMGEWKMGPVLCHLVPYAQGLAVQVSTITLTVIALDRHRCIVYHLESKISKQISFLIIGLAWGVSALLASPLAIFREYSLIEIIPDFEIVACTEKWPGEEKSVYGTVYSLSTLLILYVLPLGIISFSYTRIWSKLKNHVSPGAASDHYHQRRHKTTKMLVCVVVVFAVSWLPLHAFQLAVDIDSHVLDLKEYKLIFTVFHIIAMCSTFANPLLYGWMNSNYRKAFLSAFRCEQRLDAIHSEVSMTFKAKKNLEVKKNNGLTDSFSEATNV

B1: porcine NPY13-36 (peptide, UniProt P01304 22-45, looked up)
peptide: PAEDLARYYSALRHYINLITRQRY
modifications: ends and bridges not checked
notes: range 13-36; Range counted on the mature peptide; also called NPY13-36, porcine
B2: rat PP (peptide, UniProt P06303 30-65, looked up)
peptide: APLEPMYPGDYATHEQRAQYETQLRRYINTLTRPRY
notes: mature; also called PP, rat
B3: human PP (peptide, UniProt P01298 30-65, looked up)
peptide: APLEPVYPGDNATPEQMAQYAADLRRYINMLTRPRY
notes: mature; also called PP, human; human pancreatic polypeptide
B4: bovine PP (peptide, UniProt P01302 30-65, looked up)
peptide: B3 peptide with V6E, D23E
notes: mature; also called PP, bovine
B5: human PP13-36 (peptide, UniProt P01298 42-65, looked up)
peptide: TPEQMAQYAADLRRYINMLTRPRY
notes: range 13-36; Range counted on the mature peptide
B6: FLRF-amide (peptide)
peptide: FLRF-NH2
B7: human [Ile^31, Gln^34]PP (peptide, UniProt P01298 30-65, looked up)
peptide: B3 peptide with L31I, P34Q
modifications: ends and bridges not checked
notes: mature
B8: human PP2-36 (peptide, UniProt P01298 31-65, looked up)
peptide: PLEPVYPGDNATPEQMAQYAADLRRYINMLTRPRY
notes: range 2-36; Range counted on the mature peptide
B9: porcine NPY16-36 (peptide, UniProt P01304 25-45, looked up)
peptide: DLARYYSALRHYINLITRQRY
notes: range 16-36; Range counted on the mature peptide
B10: human PP31-36 (peptide, UniProt P01298 60-65, looked up)
peptide: LTRPRY
notes: range 60-65; Range counted on the mature peptide
B11: human PYY13-36 (peptide, UniProt P10082 41-64, looked up)
peptide: SPEELNRYYASLRHYLNLVTRQRY
notes: as for B5
B12: frog PP (rana temporaria) (peptide)
peptide: APSEPHHPGDQATQDQLAQYYSDLYQYITFVTRPRF
modifications: ends and bridges not checked
B13: porcine NPY22-36 (peptide, UniProt P01304 31-45, looked up)
peptide: SALRHYINLITRQRY
notes: range 22-36; Range counted on the mature peptide

T7 sequence (P50391 whole entry): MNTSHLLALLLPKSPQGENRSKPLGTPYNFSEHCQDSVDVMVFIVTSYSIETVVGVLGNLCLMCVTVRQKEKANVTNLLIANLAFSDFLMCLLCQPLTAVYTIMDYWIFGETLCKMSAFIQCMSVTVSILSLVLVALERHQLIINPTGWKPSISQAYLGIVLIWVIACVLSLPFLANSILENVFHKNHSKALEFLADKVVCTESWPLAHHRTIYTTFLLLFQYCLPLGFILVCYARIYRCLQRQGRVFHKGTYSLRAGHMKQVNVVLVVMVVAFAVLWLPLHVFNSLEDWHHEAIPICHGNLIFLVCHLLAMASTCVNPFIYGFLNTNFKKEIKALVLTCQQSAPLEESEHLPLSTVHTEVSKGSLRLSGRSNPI

The first assay has as its target T1, canine Y5 receptor. Put plainly: 125I-PYY displacement, COS-7 membranes.
As to B1, the Ki (in general, the dissociation constant of the complex between target and ligand, obtained from inhibition or displacement) came out at 120 nM.

As for B2, affinity was put at a Ki of 160 nM.

B3 registered a Ki of 6.3 nM.

For B4, the affinity corresponds to a Ki of 10 nM. Compared with the last molecule, the Ki is about 1.6-fold higher.

A further assay addresses T2, human Y1 receptor. The assay can be described thus: 125I-PYY displacement, COS-7 membranes.
Consider B2, for which affinity was put at a Ki of 450 nM.

A further assay concerns the target T7, human Y4 receptor (human, UniProt P50391 1-375).
T7 construct: whole, on cells
The assay can be described thus: 125I-PYY displacement, COS-7 membranes.
The molecule B5 showed a Ki of 39 nM.

As for B2, the Ki turned out to be 0.16 nM.

The target in the next assay is T3, rat hypothalamic Y5 receptor. The assay can be described thus: 125I-PYY displacement, COS-7 membranes.
B2 yielded a Ki of 180 nM.

In turn, B3 showed an inhibitory constant (Ki) of 5 nM.

The target is the same in the next assay. Put plainly: cell-based or functional assay.
Take B6: the “EC50, inhibition of forskolin-stimulated cAMP accumulation, 293 cells” value (“EC50, inhibition … 293 cells” below) is 13000 nM.

As to B2, the “EC50, inhibition … 293 cells” value was 130 nM.

B4: the “EC50, inhibition … 293 cells” value came out at 5.7 nM.

For another assay, the target named is T4, human Y5 receptor. Put plainly: cell-based or functional assay.
In the case of B7, the “EC50, inhibition of forskolin-stimulated cAMP accumulation, LM(tk-) cells” value amounted to 5.6 nM.

As for B8, the “EC50, inhibition of forskolin-stimulated cAMP accumulation, LM(tk-) cells” value worked out at 2 nM.

In a further assay the target is T8, rat Y4 receptor (rat, UniProt Q63447 1-375).
T8 construct: whole, on cells; also called rY4
T8 sequence (Q63447 whole entry): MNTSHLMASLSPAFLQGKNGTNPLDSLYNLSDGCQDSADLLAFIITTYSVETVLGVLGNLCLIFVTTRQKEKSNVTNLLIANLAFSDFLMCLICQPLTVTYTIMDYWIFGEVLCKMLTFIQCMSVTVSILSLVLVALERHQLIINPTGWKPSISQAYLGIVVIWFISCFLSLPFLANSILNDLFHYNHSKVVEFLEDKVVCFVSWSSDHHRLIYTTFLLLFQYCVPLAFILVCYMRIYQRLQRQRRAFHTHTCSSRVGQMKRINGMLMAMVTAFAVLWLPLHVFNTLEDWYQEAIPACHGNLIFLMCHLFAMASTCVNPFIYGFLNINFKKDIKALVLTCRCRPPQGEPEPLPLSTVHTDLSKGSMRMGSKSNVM
The assay can be described thus: 125I-PYY displacement, COS-7 membranes.
On to B2, for which the inhibitory constant (Ki) was less than 0.2 nM.

B3 showed a Ki of less than 0.2 nM.

The target in a further assay is T1, canine Y5 receptor. Put plainly: 125I-PYY displacement, COS-7 membranes. The source holds these as a separate data set.
For the molecule B3, the inhibitory constant (Ki) is less than 10 nM.

The next assay has as its target T4, human Y5 receptor. The assay can be described thus: 125I-PYY3-36 displacement, LM(tk-) membranes.
B9 showed a Ki of 180 nM.

As for B10, the Ki is 41000 nM.

B2 returned a Ki of 130 nM.

In turn, B4 displayed a Ki of 5 nM.

Another assay concerns the target T4, human Y5 receptor. The assay can be described thus: 125I-PYY displacement, LM(tk-) membranes.
Turning to B4, the Ki was 7.9 nM.

In a further assay the target is T2, human Y1 receptor. The assay can be described thus: 125I-PYY displacement, COS-7 membranes. This is another data set of the same source.
For the molecule B2, the Ki is 450 nM.

The target in another assay is T4, human Y5 receptor. The assay can be described thus: 125I-PYY displacement, COS-7 membranes.
B5 yielded a Ki of 720 nM.

Turning to B2, the Ki worked out at 630 nM.

In turn, B8 returned a Ki of 2.1 nM.

Another assay has as its target T7, human Y4 receptor. Put plainly: 125I-PYY displacement, COS-7 membranes. This is another data set of the same source.
For the molecule B5, the affinity, expressed as Ki, was 39 nM.

Molecule B2 showed a Ki of 0.16 nM. This Ki is about 240-fold lower than that of the molecule before.

The target of a further assay is T8, rat Y4 receptor. Put plainly: 125I-PYY displacement, COS-7 membranes. This is another data set of the same source.
Regarding B9, the affinity, expressed as Ki, was 200 nM. That is a sub-micromolar value.

With B10, the Ki amounted to 26 nM.

As for B3, the Ki came to 0.04 nM.

The next assay has as its target T5, rat Y1 receptor. The assay can be described thus: 125I-PYY displacement, COS-7 membranes.
As to B6, the affinity corresponds to a Ki of 45000 nM.

In turn, B9 displayed an inhibition constant Ki of 140 nM.

Molecule B1 registered a Ki of 190 nM.

Turning to B4, the Ki came out at 120 nM.

B11: affinity was put at a Ki of 130 nM.

For the molecule B12, the Ki stood at 720 nM.

The target in a further assay is T6, rat Y2 receptor. Put plainly: 125I-PYY displacement, COS-7 membranes.
B9 returned a Ki of 35 nM.

The molecule B13 came in with a Ki of 54 nM. Compared with the last molecule, the Ki is about 1.5-fold higher.

B1 displayed a Ki of 31 nM.

The target in another assay is T3, rat hypothalamic Y5 receptor. The assay can be described thus: 125I-PYY displacement, COS-7 membranes. The source holds these as a separate data set.
In the case of B6, the Ki is 5500 nM.

The molecule B9 had a Ki of 260 nM.

As to B5, the Ki worked out at 84 nM. This Ki lies about 3.1-fold lower than the previous one.

On to B2, for which the Ki stood at 230 nM.

The molecule B3 displayed a Ki of 5 nM.

In turn, B4 registered a Ki of 8.4 nM.

The target in the next assay is T4, human Y5 receptor. The assay can be described thus: 125I-PYY displacement, COS-7 membranes. This is another data set of the same source.
For the molecule B9, the affinity, expressed as Ki, was 300 nM.

In the case of B5, the Ki is 720 nM.

B2 returned a Ki of 630 nM.

On to B7, for which the Ki amounted to 2 nM. Against the preceding molecule, the Ki is about 320-fold lower.

As for B4, the Ki is 1.6 nM.

In the case of B8, the Ki was found to be 2.1 nM.

The next assay addresses T3, rat hypothalamic Y5 receptor. Put plainly: 125I-PYY displacement, COS-7 membranes. This is another data set of the same source.
Molecule B9 gave a Ki of 260 nM.

B5 yielded a Ki of 290 nM.

Regarding B2, the Ki came out at 230 nM.

In turn, B3 showed a Ki of 5 nM. This Ki is about 46-fold lower than that of the molecule before.

For B4, the Ki turned out to be 8.4 nM.
